Data: PMC5968753, “Radical transfer in E. coli ribonucleotide reductase: a NH2Y731/R411A-α mutant unmasks a new conformation of the pathway residue 731† †Electronic supplementary information (ESI) available. See DOI: 10.1039/c5sc03460d” (Chemical Science, 2015)

How the values were obtained:
Details in all cases: both partners purified
[1] = molecular target: T1, R411A-α2 (E. coli class Ia ribonucleotide reductase subunit α2 with the R411A substitution) (E. coli, UniProt P00452 1-761, R411A); assay: spectrophotometric competitive inhibition assay (enzyme activity); R411A-α2 used as the inhibitor, 10 nM to 5 μM; D2O assay buffer; relative activities in the presence of inhibitor fit to the standard Kd equation (eq. 1); average of two replicates
T1 construct: Ribonucleoside-diphosphate reductase 1 subunit alpha (α, NrdA), E. coli; GCG (Ala) inserted at position 411; the construct has an N-terminal (His)6-tag with a 10 amino acid linker; Homodimer (α2); source: E. coli, expressed from pET28a-nrdA, purified by previous protocols; pre-reduced with 30 mM DTT and 15 mM HU before use
T1 sequence: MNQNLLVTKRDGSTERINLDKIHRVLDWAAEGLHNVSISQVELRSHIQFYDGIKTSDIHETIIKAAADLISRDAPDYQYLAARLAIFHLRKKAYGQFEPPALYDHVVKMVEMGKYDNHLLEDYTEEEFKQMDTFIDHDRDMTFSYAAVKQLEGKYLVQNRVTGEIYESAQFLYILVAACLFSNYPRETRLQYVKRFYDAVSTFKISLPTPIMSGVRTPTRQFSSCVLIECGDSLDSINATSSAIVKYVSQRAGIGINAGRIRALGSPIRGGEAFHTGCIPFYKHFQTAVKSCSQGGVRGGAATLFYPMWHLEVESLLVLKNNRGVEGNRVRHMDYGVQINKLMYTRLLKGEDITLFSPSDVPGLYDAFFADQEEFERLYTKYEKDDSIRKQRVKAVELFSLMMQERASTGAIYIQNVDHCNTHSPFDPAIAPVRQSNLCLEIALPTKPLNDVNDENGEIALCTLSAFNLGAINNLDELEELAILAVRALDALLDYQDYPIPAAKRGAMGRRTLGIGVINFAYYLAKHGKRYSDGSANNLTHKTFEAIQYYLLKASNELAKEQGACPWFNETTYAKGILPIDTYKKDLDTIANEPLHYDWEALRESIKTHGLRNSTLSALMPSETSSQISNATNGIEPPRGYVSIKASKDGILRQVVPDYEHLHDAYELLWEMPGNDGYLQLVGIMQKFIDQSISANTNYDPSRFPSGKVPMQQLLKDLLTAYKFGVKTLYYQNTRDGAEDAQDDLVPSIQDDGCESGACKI

[2] = molecular target: T2, R411A-α2, E. coli class Ia ribonucleotide reductase subunit α2 with R411A (E. coli, UniProt P00452 1-761, R411A); assay: competitive inhibition assay; Kd for α2 mutant and wt-β2, determined in H2O and D2O buffers by the competitive inhibition assay of ref. 42; details in SI-2, Fig. S2
T2 construct: E. coli class Ia ribonucleotide reductase subunit alpha (nrdA) with R411A; a 10 amino acid linker follows the N-terminal (His)6-tag; source: pre-reduced with 30 mM DTT and 15 mM HU before use
T2 sequence (looked up): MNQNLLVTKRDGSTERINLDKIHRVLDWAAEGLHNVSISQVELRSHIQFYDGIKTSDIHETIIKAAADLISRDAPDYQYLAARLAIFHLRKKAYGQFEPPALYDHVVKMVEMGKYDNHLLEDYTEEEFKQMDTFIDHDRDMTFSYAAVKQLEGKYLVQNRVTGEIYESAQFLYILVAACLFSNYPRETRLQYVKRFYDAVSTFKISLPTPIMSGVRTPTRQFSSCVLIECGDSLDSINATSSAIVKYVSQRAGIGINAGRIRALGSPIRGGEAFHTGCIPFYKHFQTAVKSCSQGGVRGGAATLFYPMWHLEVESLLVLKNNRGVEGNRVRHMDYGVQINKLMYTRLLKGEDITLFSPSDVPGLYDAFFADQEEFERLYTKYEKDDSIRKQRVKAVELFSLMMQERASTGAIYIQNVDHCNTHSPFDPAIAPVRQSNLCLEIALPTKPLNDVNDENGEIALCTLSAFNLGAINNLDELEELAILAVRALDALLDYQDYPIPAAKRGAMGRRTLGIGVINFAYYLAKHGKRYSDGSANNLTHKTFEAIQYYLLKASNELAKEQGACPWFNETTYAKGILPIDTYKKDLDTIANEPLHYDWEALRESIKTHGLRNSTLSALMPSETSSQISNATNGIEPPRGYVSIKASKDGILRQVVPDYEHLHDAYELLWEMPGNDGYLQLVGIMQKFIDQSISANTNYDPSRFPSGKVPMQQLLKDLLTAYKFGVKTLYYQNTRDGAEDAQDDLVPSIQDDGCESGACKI

[3] = molecular target: T3, NH2Y731/R411A-α2, E. coli class Ia ribonucleotide reductase subunit α2 with 3-aminotyrosine at 731 and R411A (E. coli, UniProt P00452 1-761, R411A, 3-aminotyrosine (NH2Y) at 731 in place of Y731); assay: as above
T3 construct: E. coli class Ia ribonucleotide reductase subunit alpha (nrdA) with R411A and the unnatural amino acid 3-aminotyrosine incorporated at position 731; a 10 amino acid linker follows the N-terminal (His)6-tag; With β2, CDP and ATP the 3-aminotyrosine at 731 is oxidised to the radical NH2Y731˙ (ND2Y731˙ in D2O); also called ND2Y731˙/R411A-α2; ND2Y731˙/R411A-α; source: pre-reduced with 30 mM DTT and …
T3 sequence (looked up): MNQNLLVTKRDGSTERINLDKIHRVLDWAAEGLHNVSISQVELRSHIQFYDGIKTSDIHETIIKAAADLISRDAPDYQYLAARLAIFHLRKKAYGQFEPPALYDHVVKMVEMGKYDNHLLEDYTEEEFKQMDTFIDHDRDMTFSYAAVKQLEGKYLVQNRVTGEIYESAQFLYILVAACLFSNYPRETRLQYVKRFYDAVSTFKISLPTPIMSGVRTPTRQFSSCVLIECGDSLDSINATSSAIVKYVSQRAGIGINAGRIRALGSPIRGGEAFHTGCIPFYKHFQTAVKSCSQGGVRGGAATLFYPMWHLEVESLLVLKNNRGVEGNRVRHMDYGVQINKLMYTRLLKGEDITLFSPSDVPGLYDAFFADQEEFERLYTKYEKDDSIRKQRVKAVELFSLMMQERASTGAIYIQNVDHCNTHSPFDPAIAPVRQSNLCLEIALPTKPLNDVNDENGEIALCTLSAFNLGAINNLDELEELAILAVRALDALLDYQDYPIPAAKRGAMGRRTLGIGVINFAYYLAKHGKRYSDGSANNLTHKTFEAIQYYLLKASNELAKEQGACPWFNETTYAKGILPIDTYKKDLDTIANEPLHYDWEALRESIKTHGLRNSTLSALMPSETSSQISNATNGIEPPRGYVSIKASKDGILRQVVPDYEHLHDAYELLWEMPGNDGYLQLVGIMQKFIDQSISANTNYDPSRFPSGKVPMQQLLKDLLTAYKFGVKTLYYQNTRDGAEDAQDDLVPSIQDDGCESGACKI

B1: wt-β2 (E. coli class Ia ribonucleotide reductase subunit β2, wild type) (enzyme, UniProt P69924 1-376, looked up)
chain: MAYTTFSQTKNDQLKEPMFFGQPVNVARYDQQKYDIFEKLIEKQLSFFWRPEEVDVSRDRIDYQALPEHEKHIFISNLKYQTLLDSIQGRSPNVALLPLISIPELETWVETWAFSETIHSRSYTHIIRNIVNDPSVVFDDIVTNEQIQKRAEGISSYYDELIEMTSYWHLLGEGTHTVNGKTVTVSLRELKKKLYLCLMSVNALEAIRFYVSFACSFAFAERELMEGNAKIIRLIARDEALHLTGTQHMLNLLRSGADDPEMAEIAEECKQECYDLFVQAAQQEKDWADYLFRDGSMIGLNKDILCQYVEYITNIRMQAVGLDLPFQTRSNPIPWINTWLVSDNVQVAPQEVEVSSYLVGQIDSEVDTDDLSNFQL
modifications: tyrosyl radical at Y122 (1.2 Y•/β2), di-iron cofactor
notes: Ribonucleoside-diphosphate reductase 1 subunit beta (β, NrdB), E. coli, wild type; Y122 is Y123 in P69924); Homodimer (β2); source: expressed and purified by standard protocols (7000 nmol min^-1 mg^-1, 1.2 Y•/β2)
Kd [1]: 900 ± 190 nM

B2: wt-β2, E. coli class Ia ribonucleotide reductase subunit β2 (enzyme, UniProt P69924 1-376, looked up)
chain: MAYTTFSQTKNDQLKEPMFFGQPVNVARYDQQKYDIFEKLIEKQLSFFWRPEEVDVSRDRIDYQALPEHEKHIFISNLKYQTLLDSIQGRSPNVALLPLISIPELETWVETWAFSETIHSRSYTHIIRNIVNDPSVVFDDIVTNEQIQKRAEGISSYYDELIEMTSYWHLLGEGTHTVNGKTVTVSLRELKKKLYLCLMSVNALEAIRFYVSFACSFAFAERELMEGNAKIIRLIARDEALHLTGTQHMLNLLRSGADDPEMAEIAEECKQECYDLFVQAAQQEKDWADYLFRDGSMIGLNKDILCQYVEYITNIRMQAVGLDLPFQTRSNPIPWINTWLVSDNVQVAPQEVEVSSYLVGQIDSEVDTDDLSNFQL
modifications: tyrosyl radical at Y122 (1.2 Y˙/β2)
notes: E. coli class Ia ribonucleotide reductase subunit beta, with the di-iron tyrosyl radical cofactor (FeIII2–Y122˙)
Kd [2]: 940 ± 330 nM | Kd [3]: 8 ± 1 nM
